Laboratory results reported in the supplement of paper PMC9112550, “Optimization of the antimicrobial peptide Bac7 by deep mutational scanning” (BMC Biology, 2022).

system: Escherichia coli TOP10; assay: shrunken log2 fold change of peptide-encoding DNA abundance (4.5 h post-induction vs induction); higher = less antimicrobial activity (less host growth inhibition); conditions: time post-induction: 4.5 h; library: site-saturation at positions 5, 18, 19, 20
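Also: peptides expressed intracellularly from a pBAD plasmid library in pooled LB shake-flask culture, induced with 0.3% L-arabinose, DNA abundance read by NGS, three biological replicates, DESeq2 with apeglm shrinkage.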

| Sequence | shrunken log2 fold change |
| --- | --- |
| RRIRIRPPRLPRPRPRPCPSPRP | -0.186 |
| RRIRRRPPRLPRPRPRPWTGPRP | -0.444 |
| RRIRTRPPRLPRPRPRPNDLPRP | -0.354 |
| RRIRKRPPRLPRPRPRPCVLPRP | 0.0725 |
| RRIRFRPPRLPRPRPRPAGSPRP | -0.139 |
| RRIRFRPPRLPRPRPRPVRGPRP | 0.576 |
| RRIRGRPPRLPRPRPRPGLNPRP | 4.08 |
| RRIRCRPPRLPRPRPRPSYTPRP | -0.748 |
| RRIRVRPPRLPRPRPRPETCPRP | 0.437 |
| RRIRARPPRLPRPRPRPHVCPRP | -0.297 |
| RRIRPRPPRLPRPRPRPQRPPRP | 0.272 |
| RRIRHRPPRLPRPRPRPAWKPRP | -0.0109 |
| RRIRSRPPRLPRPRPRPDDGPRP | 0.00408 |
| RRIRERPPRLPRPRPRPVQVPRP | -0.227 |
| RRIRPRPPRLPRPRPRPWQRPRP | -0.0107 |
| RRIRCRPPRLPRPRPRPCQYPRP | 0.0234 |
| RRIRFRPPRLPRPRPRPEMSPRP | 0.000731 |
| RRIRQRPPRLPRPRPRPCRCPRP | -0.0134 |
| RRIRPRPPRLPRPRPRPQQAPRP | 0.106 |
| RRIRKRPPRLPRPRPRPMVFPRP | -0.0194 |

| Sequence | shrunken log2 fold change |
| --- | --- |
| RRIRERPPRLPRPRPRPVDVPRP | 0.064 |
| RRIRDRPPRLPRPRPRPNNKPRP | -0.682 |
| RRIRVRPPRLPRPRPRPRMRPRP | 0.873 |
| RRIRARPPRLPRPRPRPDHQPRP | -0.0683 |
| RRIRLRPPRLPRPRPRPAWIPRP | 0.0321 |
| RRIRKRPPRLPRPRPRPEIDPRP | 2.84 |
| RRIRIRPPRLPRPRPRPHTPPRP | -0.721 |
| RRIRSRPPRLPRPRPRPRVCPRP | 0.366 |
| RRIRRRPPRLPRPRPRPCYWPRP | 0.00692 |
| RRIRNRPPRLPRPRPRPIRHPRP | -0.0817 |
| RRIRPRPPRLPRPRPRPGNLPRP | -0.376 |
| RRIRDRPPRLPRPRPRPHMQPRP | -0.368 |
| RRIRNRPPRLPRPRPRPKHEPRP | 0.13 |
| RRIRQRPPRLPRPRPRPPDRPRP | 0.0477 |
| RRIRQRPPRLPRPRPRPQGEPRP | -0.154 |
| RRIRTRPPRLPRPRPRPYDVPRP | -0.153 |
| RRIRARPPRLPRPRPRPGAIPRP | 0.828 |
| RRIRKRPPRLPRPRPRPESDPRP | 0.262 |
| RRIRQRPPRLPRPRPRPYCTPRP | -0.863 |
| RRIRARPPRLPRPRPRPEIKPRP | 1.77 |

| Sequence | shrunken log2 fold change |
| --- | --- |
| RRIRFRPPRLPRPRPRPICNPRP | -0.424 |
| RRIRYRPPRLPRPRPRPVDAPRP | -0.42 |
| RRIRDRPPRLPRPRPRPGAIPRP | 0.271 |
| RRIRNRPPRLPRPRPRPWHPPRP | -0.277 |
| RRIRLRPPRLPRPRPRPHNLPRP | -0.11 |
| RRIRERPPRLPRPRPRPDPFPRP | -0.102 |
| RRIRSRPPRLPRPRPRPCWMPRP | -0.0635 |
| RRIRERPPRLPRPRPRPCWPPRP | 0.0214 |
| RRIRGRPPRLPRPRPRPNMHPRP | 0.563 |
| RRIRHRPPRLPRPRPRPAGLPRP | 0.269 |
| RRIRTRPPRLPRPRPRPKGTPRP | -0.188 |
| RRIRVRPPRLPRPRPRPRYYPRP | -0.0159 |
| RRIRARPPRLPRPRPRPLSSPRP | 0.2 |
| RRIRGRPPRLPRPRPRPNSNPRP | 0.0841 |
| RRIRYRPPRLPRPRPRPTHPPRP | -0.311 |
| RRIRWRPPRLPRPRPRPYTGPRP | -0.135 |
| RRIRTRPPRLPRPRPRPQHVPRP | -0.0575 |
| RRIRERPPRLPRPRPRPCMRPRP | -0.0898 |
| RRIRVRPPRLPRPRPRPVREPRP | 0.3 |
| RRIRVRPPRLPRPRPRPPPTPRP | 0.933 |
